According to PMC3810028:
Read-outs that look alike come from different tables or passages of the source.

Legend:
[1] = biological target: HIV-1 YU-2 envelope gp120 with a C-terminal hexa-histidine tag (HIV-1 (YU-2 strain)) (UniProt P35961); assay: ITC
[2] = biological target: HIV-1 YU-2 envelope gp120 with a C-terminal hexa-histidine tag (HIV-1 (YU-2 strain)) (UniProt P35961); assay: SPR
[3] = biological target: HIV-1 YU-2 envelope gp120 with a C-terminal hexa-histidine tag (HIV-1 (YU-2 strain)) (UniProt P35961); assay: SPR; remark: listed apart in the source
[4] = biological target: HIV-1 YU-2 envelope gp120 with a C-terminal hexa-histidine tag (HIV-1 (YU-2 strain)) (UniProt P35961)

Substance | dH [1] [kcalmol^−1] | IC50 [2] [nM] | Kd [1] [nM] | IC50 [3] [nM] | EC50 of inhibition of single-round infection by HIV-1BaL (Env of BaL, not YU-2) [4] [nM]
peptide triazole KR-41 (UM-24 with Trp 6 replaced by L-3-benzothienylalanine, Bta) | -14.9 | 50.8 |  |  | 
peptide triazole KR-42 (DCit-DAsn-DAsn-DIle-LFtP-LBta-DSer-NH2) | -14.6 | 208 | 282 | 119 | 
peptide triazole UM-24 (Cit-N-N-I-X-W-S-CONH2) | -14.1 | 71.5 | 21.1 | 45 | 6200
